Experimental data reported in publication PMC549569.

Molecular target: αCP1-KH3 (third KH domain of poly(C)-binding protein 1, PCBP1/hnRNP E1) (UniProt Q15365 279-356)
Assay: SPR

Chain of αCP1-KH3 (third KH domain of poly(C)-binding protein 1, PCBP1/hnRNP E1) (Q15365 279-356): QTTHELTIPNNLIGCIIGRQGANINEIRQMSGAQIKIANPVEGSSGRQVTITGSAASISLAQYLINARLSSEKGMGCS

CUCUCCUUUCUUUUUCUUCUUCCCUCCCUA (ssRNA) [AR mRNA 3'-UTR 30 nt UC-rich RNA (nt 3296-3325)]
Kd: 4.37 µM
